Measurements from the supplement of paper PMC11246515.
± gives the standard deviation of the averaged measurements.

Assay: total protein half-life in vivo (active degradation + dilution); higher = more stable protein
[1] = E. coli NCM3722 delta-clpP delta-lon delta-hslV, growth: N-lim chemostat, doubling time 6 h
[2] = E. coli NCM3722 delta-clpP, growth: N-lim chemostat, doubling time 6 h
[3] = E. coli NCM3722 delta-hslV, growth: N-lim chemostat, doubling time 6 h
[4] = E. coli NCM3722 delta-lon, growth: N-lim chemostat, doubling time 6 h
[5] = E. coli NCM3722 delta-smpB, growth: N-lim chemostat, doubling time 6 h
[6] = wild type E. coli NCM3722, growth: C-lim chemostat, doubling time 3 h
[7] = wild type E. coli NCM3722, growth: C-lim chemostat, doubling time 6 h
[8] = wild type E. coli NCM3722, growth: C-lim chemostat, doubling time 12 h
[9] = wild type E. coli NCM3722, growth: N-lim chemostat, doubling time 6 h
[10] = wild type E. coli NCM3722, growth: N-lim chemostat, doubling time 12 h
[11] = wild type E. coli NCM3722, growth: P-lim chemostat, doubling time 6 h
[12] = wild type E. coli NCM3722, growth: P-lim chemostat, doubling time 12 h

| Sequence | total protein half-life in vivo [1] | total protein half-life in vivo [2] | total protein half-life in vivo [3] | total protein half-life in vivo [4] | total protein half-life in vivo [5] | total protein half-life in vivo [6] | total protein half-life in vivo [7] | total protein half-life in vivo [8] | total protein half-life in vivo [9] | total protein half-life in vivo [10] | total protein half-life in vivo [11] | total protein half-life in vivo [12] |
| --- | --- | --- | --- | --- | --- | --- | --- | --- | --- | --- | --- | --- |
| MSYSNILVAVAVTPESQQLLAKAVSIARPVKGHISLITLASDPEMYNQLAAPMLEDLRSVMHEETQSFLDKLIQDAGYPVDKTFIAYGELSEHILEVCHKHHFDLVICGNHNHSFFSRASCSAKRVIASSEVDVLLVPLTGD | 4.56 ± 0.81 h | 3.97 h | 4.06 h | 4.66 ± 0.43 h | 3.93 ± 0.25 h | 3.26 ± 0.33 h | 3.71 h | 9.83 ± 3.1 h | 4.07 h | 6.65 h | 5.2 h | 11.8 ± 1.2 h |
| MSYTPMSDLGQQGLFDITRTLLQQPDLASLCEALSQLVKRSALADNAAIVLWQAQTQRASYYASREKDTPIKYEDETVLAHGPVRSILSRPDTLHCSYEEFCETWPQLDAGGLYPKFGHYCLMPLAAEGHIFGGCEFIRYDDRPWSEKEFNRLQTFTQIVSVVTEQIQSRVVNNVDYELLCRERDNFRILVAITNAVLSRLDMDELVSEVAKEIHYYFDIDDISIVLRSHRKNKLNIYSTHYLDKQHPAHEQSEVDEAGTLTERVFKSKEMLLINLHERDDLAPYERMLFDTWGNQIQTLCLLPLMSGDTMLGVLKLAQCEEKVFTTTNLNLLRQIAERVAIAVDNALAYQEIHRLKERLVDENLALTEQLNNVDSEFGEIIGRSEAMYSVLKQVEMVAQSDSTVLILGETGTGKELIARAIHNLSGRNNRRMVKMNCAAMPAGLLESDLFGHERGAFTGASAQRIGRFELADKSSLFLDEVGDMPLELQPKLLRVLQEQEFERLGSNKIIQTDVRLIAATNRDLKKMVADREFRSDLYYRLNVFPIHLPPLRERPEDIPLLAKAFTFKIARRLGRNIDSIPAETLRTLSNMEWPGNVRELENVIERAVLLTRGNVLQLSLPDIVLPEPETPPAATVVALEGEDEYQLIVRVLKETNGVVAGPKGAAQRLGLKRTTLLSRMKRLGIDKSALI | 6.33 ± 0.39 h | 4.33 ± 0.27 h | 3.33 ± 0.097 h | 5.42 ± 0.29 h | 3.22 ± 0.57 h | 2.4 ± 0.24 h | 5.33 ± 1.1 h | 7.11 ± 0.98 h | 3.48 ± 0.2 h | 8.1 ± 4.8 h | 2.84 h | 5.132 ± 0.02 h |
| MTAIAPVITIDGPSGAGKGTLCKAMAEALQWHLLDSGAIYRVLALAALHHHVDVASEDALVPLASHLDVRFVSTNGNLEVILEGEDVSGEIRTQEVANAASQVAAFPRVREALLRRQRAFRELPGLIADGRDMGTVVFPDAPVKIFLDASSEERAHRRMLQLQEKGFSVNFERLLAEIKERDDRDRNRAVAPLVPAADALVLDSTTLSIEQVIEKALQYARQKLALA [P0A6I0] | 4.56 ± 0.24 h | 4.93 ± 0.48 h | 4.14 ± 0.16 h | 4.79 ± 0.34 h | 3.86 ± 0.083 h | 3.05 ± 0.14 h | 5.44 ± 0.4 h | 9.23 ± 1.1 h | 4.15 ± 0.046 h | 6.34 ± 1.1 h | 4.71 ± 0.26 h | 9.34 ± 0.78 h |
| MTAKTAPKVTLWEFFQQLGKTFMLPVALLSFCGIMLGIGSSLSSHDVITLIPVLGNPVLQAIFTWMSKIGSFAFSFLPVMFCIAIPLGLARENKGVAAFAGFIGYAVMNLAVNFWLTNKGILPTTDAAVLKANNIQSILGIQSIDTGILGAVIAGIIVWMLHERFHNIRLPDALAFFGGTRFVPIISSLVMGLVGLVIPLVWPIFAMGISGLGHMINSAGDFGPMLFGTGERLLLPFGLHHILVALIRFTDAGGTQEVCGQTVSGALTIFQAQLSCPTTHGFSESATRFLSQGKMPAFLGGLPGAALAMYHCARPENRHKIKGLLISGLIACVVGGTTEPLEFLFLFVAPVLYVIHALLTGLGFTVMSVLGVTIGNTDGNIIDFVVFGILHGLSTKWYMVPVVAAIWFVVYYVIFRFAITRFNLKTPGRDSEVASSIEKAVAGAPGKSGYNVPAILEALGGADNIVSLDNCITRLRLSVKDMSLVNVQALKDNRAIGVVQLNQHNLQVVIGPQVQSVKDEMAGLMHTVQA |  |  |  |  |  | 1.42 ± 0.085 h |  | 2.5 ± 0.29 h |  |  |  |  |
| MTDIAQLLGKDADNLLQHRCMTIPSDQLYLPGHDYVDRVMIDNNRPPAVLRNMQTLYNTGRLAGTGYLSILPVDQGVEHSAGASFAANPLYFDPKNIVELAIEAGCNCVASTYGVLASVSRRYAHRIPFLVKLNHNETLSYPNTYDQTLYASVEQAFNMGAVAVGATIYFGSEESRRQIEEISAAFERAHELGMVTVLWAYLRNSAFKKDGVDYHVSADLTGQANHLAATIGADIVKQKMAENNGGYKAINYGYTDDRVYSKLTSENPIDLVRYQLANCYMGRAGLINSGGAAGGETDLSDAVRTAVINKRAGGMGLILGRKAFKKSMADGVKLINAVQDVYLDSKITIA [P0A991] | 6.08 ± 0.41 h | 5.88 ± 0.5 h | 6.17 ± 0.49 h | 5.99 ± 0.7 h | 5.21 ± 0.23 h | 3.37 ± 0.44 h | 6.705 ± 0.067 h | 12.9 ± 0.75 h | 5.51 ± 0.26 h | 10.1 ± 0.44 h | 6.06 ± 0.11 h | 13.3 ± 0.99 h |
| MTDKTIAFSLLDLAPIPEGSSAREAFSHSLDLARLAEKRGYHRYWLAEHHNMTGIASAATSVLIGYLAANTTTLHLGSGGVMLPNHSPLVIAEQFGTLNTLYPGRIDLGLGRAPGSDQRTMMALRRHMSGDIDNFPRDVAELVDWFDARDPNPHVRPVPGYGEKIPVWLLGSSLYSAQLAAQLGLPFAFASHFAPDMLFQALHLYRSNFKPSARLEKPYAMVCINIIAADSNRDAEFLFTSMQQAFVKLRRGETGQLPPPIQNMDQFWSPSEQYGVQQALSMSLVGDKAKVRHGLQSILRETDADEIMVNGQIFDHQARLHSFELAMDVKEELLG [P0ADV5] | 4.46 ± 0.36 h | 4.24 ± 0.94 h | 5.06 ± 1.8 h | 3.94 ± 0.19 h | 3.55 ± 0.21 h | 3.07 ± 0.28 h |  |  | 4.47 ± 1.3 h | 5.76 ± 1.3 h | 6.06 ± 0.55 h | 11.1 ± 0.18 h |
| MTDKTSLSYKDAGVDIDAGNALVGRIKGVVKKTRRPEVMGGLGGFGALCALPQKYREPVLVSGTDGVGTKLRLAMDLKRHDTIGIDLVAMCVNDLVVQGAEPLFFLDYYATGKLDVDTASAVISGIAEGCLQSGCSLVGGETAEMPGMYHGEDYDVAGFCVGVVEKSEIIDGSKVSDGDVLIALGSSGPHSNGYSLVRKILEVSGCDPQTTELDGKPLADHLLAPTRIYVKSVLELIEKVDVHAIAHLTGGGFWENIPRVLPDNTQAVIDESSWQWPEVFNWLQTAGNVEHHEMYRTFNCGVGMIIALPAPEVDKALALLNANGENAWKIGIIKASDSEQRVVIE | 4.99 ± 0.091 h | 4.62 ± 1 h | 4.47 ± 0.064 h | 5.23 ± 0.1 h | 4.258 ± 0.021 h | 2.94 ± 0.24 h | 5.66 ± 0.063 h | 11.1 ± 0.42 h | 4.53 ± 0.17 h | 7.47 ± 0.71 h | 4.7 ± 0.29 h | 9.07 ± 2 h |
